Broadly, the Kd is a measure of binding affinity in units of concentration. Read a low Kd as higher affinity. A word on the koff: it is the first-order rate constant of dissociation. A lower koff goes with a long-lived complex. As a reminder, the kon is the second-order rate constant of association. A lower kon goes with slow association.

No end group written: not given here.

Results on one molecule are retold here after US20160356794A1 (Merck Sharp & Dohme, published 2016).

The target of assay [1] is h-Tau 441 (human Tau isoform 2-441, Accession No. NP 005901.2) (human, UniProt P10636 2-758). Briefly: SPR, BIAcore CM3 sensor chip, immobilized h-Tau 441. Here is the method:
The binding affinity (Kd) of the 10H8 and 19G10 mAbs was determined by BIAcore CM3 sensor chip (Biacore, Piscataway, N.J.) using immobilized h-Tau 441 as the capture protein.
(In general: SPR reads the build-up and loss of mass on a sensor chip optically.)

Assay [2] addresses T1, PPTREPKKVAVVRTP (human).
T1 construct: Synthetic peptide covalently immobilized on glass through a hydrophilic linker (RepliTope microarray)
T1 peptide: PPTREPKKVAVVRTP
Briefly: RepliTope peptide microarray, immobilized 15-mer, fluorescent secondary antibody. From the text:
(§1) Epitope mapping of clones 10H8 and 19G10 was completed using JPT Peptide Technologies' RepliTope™ peptide microarrays. This technology consists in using purified synthetic peptides chemoselectively and covalently immobilized to the glass surface. An optimized hydrophilic linker moiety is inserted between the glass surface and the antigen derived peptide sequence to avoid false negatives caused by sterical hindrance. The peptides used spanned Tau mid region protein sequence of 166 amino acids between amino acid 104 and amino acid 269 (Tau 166). Peptides of 15 amino acids in length that extended downstream either 1 or 2 amino acids at a time were used in this experiment.
(§2) The assay was performed using an automated TECAN HS4X00 microarray processing station. Microarrays were washed, incubated with blocking buffer for 60 min at 30° C., and subsequently with clones […] and 19G10 diluted in blocking buffer for 120 min at 30° C. Microarrays were washed and incubated with secondary antibody diluted in blocking buffer for 45 min at 30° C. and then dried. The quantification was performed using high resolution fluorescence scanner. The resulting images were analyzed and quantified using spot-recognition software GenePix (Molecular Devices). For each spot, the mean signal intensity was extracted and expressed as arbitraty florescence units.

Assay [3] concerns the target T2, TREPKKVAVVRTPPK (human, also: covalently immobilized on glass through a hydrophilic linker).
T2 construct: Synthetic peptide covalently immobilized on glass through a hydrophilic linker (RepliTope microarray)
T2 peptide: TREPKKVAVVRTPPK
The assay is described as above.
Source text: as §1, §2

The target of assay [4] is T3, EPKKVAVVRTPPKSP (human).
T3 construct: Synthetic peptide covalently immobilized on glass through a hydrophilic linker (RepliTope microarray)
T3 peptide: EPKKVAVVRTPPKSP
The assay is described as above.
Source text: as §1, §2

The next assay addresses T4, KKVAVVRTPPKSPSS (human).
T4 construct: Synthetic peptide covalently immobilized on glass through a hydrophilic linker (RepliTope microarray)
T4 peptide: KKVAVVRTPPKSPSS
Described as above.
Source text: as §1, §2

In assay [5] the target is T5, SLPTPPTREPKKVAV (human, also: covalently immobilized on glass through a hydrophilic linker).
T5 construct: Synthetic peptide covalently immobilized on glass through a hydrophilic linker (RepliTope microarray)
T5 peptide: SLPTPPTREPKKVAV
Described as above.
Source text: as §1, §2

Another assay has as its target T6, LPTPPTREPKKVAVV (human).
T6 construct: Synthetic peptide covalently immobilized on glass through a hydrophilic linker (RepliTope microarray)
T6 peptide: LPTPPTREPKKVAVV
The description is as above.
Source text: as §1, §2

In assay [6] the target is T7, PTPPTREPKKVAVVR (human).
T7 construct: Synthetic peptide covalently immobilized on glass through a hydrophilic linker (RepliTope microarray)
T7 peptide: PTPPTREPKKVAVVR
Described as above.
Source text: as §1, §2

A further assay concerns the target T8, TPPTREPKKVAVVRT (human, also: covalently immobilized on glass through a hydrophilic linker).
T8 construct: Synthetic peptide covalently immobilized on glass through a hydrophilic linker (RepliTope microarray)
T8 peptide: TPPTREPKKVAVVRT
Described as above.
Source text: as §1, §2

For assay [7], the target named is T9, PPTREPKKVAVVRTP (human).
T9 construct: Synthetic peptide covalently immobilized on glass through a hydrophilic linker (RepliTope microarray)
T9 peptide: PPTREPKKVAVVRTP
Described as above.
Source text: as §1, §2

Another assay has as its target T10, PTREPKKVAVVRTPP (human).
T10 construct: Synthetic peptide covalently immobilized on glass through a hydrophilic linker (RepliTope microarray)
T10 peptide: PTREPKKVAVVRTPP
The assay is described as above.
Source text: as §1, §2

Assay [8] addresses T11, TREPKKVAVVRTPPK (human, also: covalently immobilized on glass through a hydrophilic linker).
T11 construct: Synthetic peptide covalently immobilized on glass through a hydrophilic linker (RepliTope microarray)
T11 peptide: TREPKKVAVVRTPPK
The description is as above.
Source text: as §1, §2

Another assay has as its target T12, REPKKVAVVRTPPKS (human).
T12 construct: Synthetic peptide covalently immobilized on glass through a hydrophilic linker (RepliTope microarray)
T12 peptide: REPKKVAVVRTPPKS
The assay is described as above.
Source text: as §1, §2

Assay [9] deals with T13, EPKKVAVVRTPPKSP (human).
T13 construct: Synthetic peptide covalently immobilized on glass through a hydrophilic linker (RepliTope microarray)
T13 peptide: EPKKVAVVRTPPKSP
The description is as above.
Source text: as §1, §2

In the next assay the target is T14, PGSRSRTPSLPTPPT (human).
T14 construct: Synthetic peptide covalently immobilized on glass through a hydrophilic linker (RepliTope microarray)
T14 peptide: PGSRSRTPSLPTPPT
The assay is described as above.
Source text: as §1, §2

The target of the next assay is T15, SRSRTPSLPTPPTRE (human, also: covalently immobilized on glass through a hydrophilic linker).
T15 construct: Synthetic peptide covalently immobilized on glass through a hydrophilic linker (RepliTope microarray)
T15 peptide: SRSRTPSLPTPPTRE
The assay is described as above.
Source text: as §1, §2

The target of assay [10] is T16, … (human).
T16 construct: Synthetic peptide covalently immobilized on glass through a hydrophilic linker (RepliTope microarray)
Described as above.
Source text: as §1, §2

Assay [11] deals with T17, … (human).
T17 construct: Synthetic peptide covalently immobilized on glass through a hydrophilic linker (RepliTope microarray)
The description is as above.
Source text: as §1, §2
This is another data set of the same source.

Assay [12] concerns the target T18, SLPTPPTREPKKVAV (human, also: covalently immobilized on glass through a hydrophilic linker).
T18 construct: Synthetic peptide covalently immobilized on glass through a hydrophilic linker (RepliTope microarray)
T18 peptide: SLPTPPTREPKKVAV
The description is as above.
Source text: as §1, §2

For assay [13], the target named is T19, PTPPTREPKKVAVVR (human).
T19 construct: Synthetic peptide covalently immobilized on glass through a hydrophilic linker (RepliTope microarray)
T19 peptide: PTPPTREPKKVAVVR
Described as above.
Source text: as §1, §2

h-Tau 441 (human Tau isoform 2-441, Accession No. NP 005901.2), sequence (P10636 other isoform, or with tags, fused parts or gaps limits assumed): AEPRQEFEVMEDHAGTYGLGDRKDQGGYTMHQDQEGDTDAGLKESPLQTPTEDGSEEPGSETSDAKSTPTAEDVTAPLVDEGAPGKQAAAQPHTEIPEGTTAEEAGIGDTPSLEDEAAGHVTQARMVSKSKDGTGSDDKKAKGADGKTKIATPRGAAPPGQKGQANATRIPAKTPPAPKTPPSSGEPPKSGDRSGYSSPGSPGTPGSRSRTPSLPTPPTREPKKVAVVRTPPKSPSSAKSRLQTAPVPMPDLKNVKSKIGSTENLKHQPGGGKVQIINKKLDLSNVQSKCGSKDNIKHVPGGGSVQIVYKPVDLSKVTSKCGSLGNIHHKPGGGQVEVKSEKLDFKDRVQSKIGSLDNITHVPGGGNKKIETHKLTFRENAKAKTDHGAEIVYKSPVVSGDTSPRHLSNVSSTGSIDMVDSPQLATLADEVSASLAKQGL

B1: monoclonal antibody 10H8 (antibody, mouse IgG1, V domains shown)
VH: EVQLQQSGAELVRPGASVKLSCTASGFNIKDEYMNWVKQRPERGLEWIGWIDPENGDAAYASKFQGKATMTADTSSNTAYLQLSSLTSEDTAVYFCTFFYSNYDGYFDVWGAGTTVTVSS
VL: DVLMTQTPLSLPVSLGDQASISCRSSQNIIHSNGSTYLEWYLQKPGQSPKLLIYKVSNRFSGVPDRFSGSGSGTDFTLKISRVEAEDLGIYYCFQGSHVPWTFGGGTKLEIK
notes: also called mAb 10H8; 10H8 mAb
With B1, the Kd in [1] was 17 nM. The koff in [1] amounted to 0.000306 s⁻¹. The kon in assay [1] was found to be 18200 M⁻¹ s⁻¹. Besides, the “Fluorescent Intensity” value with PPTREPKKVAVVRTP [2] is 61100 arbitrary fluorescence units; with TREPKKVAVVRTPPK [3], 32400 arbitrary fluorescence units; in the assay with EPKKVAVVRTPPKSP [4], 2100 arbitrary fluorescence units; with KKVAVVRTPPKSPSS it was 750 arbitrary fluorescence units; with SLPTPPTREPKKVAV [5], 64400 arbitrary fluorescence units; with LPTPPTREPKKVAVV, 59500 arbitrary fluorescence units. In addition, the “Fluorescent Intensity” value with PTPPTREPKKVAVVR [6] is 64200 arbitrary fluorescence units; in the assay with TPPTREPKKVAVVRT it was 60600 arbitrary fluorescence units; in the assay with PPTREPKKVAVVRTP [7], 60200 arbitrary fluorescence units; in the assay with PTREPKKVAVVRTPP, 64300 arbitrary fluorescence units; in the assay with TREPKKVAVVRTPPK [8], 58800 arbitrary fluorescence units; with REPKKVAVVRTPPKS, 1400 arbitrary fluorescence units. For the same molecule, the “Fluorescent Intensity” value with EPKKVAVVRTPPKSP [9] is 890 arbitrary fluorescence units; with PGSRSRTPSLPTPPT it was 570 arbitrary fluorescence units; with SRSRTPSLPTPPTRE, 552 arbitrary fluorescence units; in assay [10], 58000 arbitrary fluorescence units; in assay [11], 56700 arbitrary fluorescence units; with SLPTPPTREPKKVAV [12] it was 63900 arbitrary fluorescence units. For the same molecule, the “Fluorescent Intensity” value with PTPPTREPKKVAVVR [13] is 53000 arbitrary fluorescence units.
